Target: mouse PRLR on HEK293 cells (mouse) (UniProt Q08501)
Experiment: FACS, HEK293/mPRLR cells

Sequence of mouse PRLR on HEK293 cells (mouse) (Q08501 20-608): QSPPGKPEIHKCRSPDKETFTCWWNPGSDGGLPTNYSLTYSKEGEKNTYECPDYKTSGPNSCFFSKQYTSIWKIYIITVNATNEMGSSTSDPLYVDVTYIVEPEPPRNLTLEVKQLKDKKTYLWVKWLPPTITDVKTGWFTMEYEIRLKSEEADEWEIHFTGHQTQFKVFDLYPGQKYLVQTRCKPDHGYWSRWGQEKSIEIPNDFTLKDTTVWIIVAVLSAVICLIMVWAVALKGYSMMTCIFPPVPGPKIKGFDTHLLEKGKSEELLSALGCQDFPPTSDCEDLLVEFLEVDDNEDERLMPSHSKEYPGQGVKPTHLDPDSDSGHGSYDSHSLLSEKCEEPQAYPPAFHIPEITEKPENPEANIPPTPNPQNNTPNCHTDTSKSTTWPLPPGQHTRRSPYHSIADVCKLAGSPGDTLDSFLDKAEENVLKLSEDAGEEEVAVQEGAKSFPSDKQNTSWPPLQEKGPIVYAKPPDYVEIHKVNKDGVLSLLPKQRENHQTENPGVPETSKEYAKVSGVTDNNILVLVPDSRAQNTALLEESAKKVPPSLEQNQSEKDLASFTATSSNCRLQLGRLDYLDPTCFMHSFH

FACS Cell Binding (Fold Above Background) (fold above background): 56
B1: H1H6801P (antibody, human IgG1, V domains shown)
VH: QVQLQQSGPGLVKPSQTLSLTCVISGDSVSSNTAWNWVRQSPSRGLEWLGRTYYRSKWYNDYAVSVKSRITINPDTSKNQFSLLMNSVTPEDTAVYYCARVVRGLNYFDYWGQGTLVTVSS
VL: DIVMTQSPDSLAVSLGERATINCKSSQSVLYNSNNKNYLAWYQQKPGQPPKLLIYWSSSRESGVPDRFSGSGSGTDFTLTISGLQAEDVAIYYCQQYSTIPYTFGQGTKLEIK

— patent US20150056222A1
